Measurements reported in patent publication US20030032777A1, “Precursor polypeptide of phytosulfokine derived from Arabidopsis thaliana and a gene encoding said polypeptide” (priority 2001, published 2003).
Square brackets hold non-standard residues; d marks the D form. Ends that are not written are not given here. sY = N[C@@H](Cc1ccc(OS(=O)(=O)O)cc1)C(=O)O

B1: AtPSK2 gene: gene of 545 bases (SEQ ID NO: 2) encoding 87-amino-acid phytosulfokine precursor of Arabidopsis thaliana (nucleic acid, listed as Arabidopsis thaliana)
DNA: TTTAAGCATCTCTCTCCCTTCAAAGAAAATATCACAAAAATGGCAAACGTCTCCGCTTTGCTCACCATAGCTCTTCTCCTTTGCTCCACGCTAATGTGCACTGCCCGCCCCGAACCGGCCATCTCCATCTCTATCACGACTGCTGCCGATCCATGTAACATGGAGAAGAAGATAGAAGGAAAATTAGATGACATGCATATGGTAGACGAAAACTGTGGTGCAGACGACGAAGATTGCTTAATGAGGAGGACTTTGGTCGCTCATACTGATTACATCTATACCCAGAAGAAGAAGCATCCTTGATTTTCACTTACTCATTTCTAACAAACTTTTGCTCAAGATTATGTAATTTATGTCATCCTTAATTAGTATTTGTCACATACAAGATCAAGATAGTTATGATTGTGATTATTTATATGTATTTTGGATGATATATTGTAGAACTAGAAGTTTGACAATAAAAAGTTTATAGTGTCGTTGTATGTTTAAGAAGTTTGACAATAAAAACTTTATAGTGTTGTTGCAAAAAAAAAAAAAAAAAAAAA
B2: AtPSKL gene: gene of 479 bases (SEQ ID NO: 4) encoding 79-amino-acid phytosulfokine precursor of Arabidopsis thaliana (nucleic acid, listed as Arabidopsis thaliana)
DNA: CTTCTCAGGCTCCCATTATCTTTCTCTATTTTGCAAATCAGTATGGGTAAGTTCACAACCATTTTCATCATGGCTCTCCTTCTTTGCTCTACGCTAACCTACGCAGCAAGGCTGACTCCGACGACAACCACCGCTTTGTCCAGAGAAAACTCCGTCAAGGAAATTGAAGGAGACAAGGTTGAAGAAGAAAGCTGCAACGGAATTGGAGAAGAAGAATGTTTGATAAGACGAAGCCTTCTTCTTCACACCGATTACATTTATACTCAGAATCACAAGCCCTAAGTTTCTGTATTAGAGCAATTAATTAACTAATTACATTATCAAACCTATCACTGTAGTACTTTCTGTTTTCTGTTCGTCTTTTTTGTTTTGTTTTGTTTATGTTATCGCTATTTTAAAGTTTCATTGTTATTTTGAAAGTTCTTACACCATCATTATTGATAGTCTCTTAAAACAAAAAAAAAAAAAAAAAAAAAAAA

What was measured:
plant cell = settings: relative to PSK-α; cited from earlier work
[1] = system: Arabidopsis cultured cells; experiment: Rate of cell division / proliferation of transgenic cells; format: cell-based, Arabidopsis thaliana; settings: for Cell proliferation of transformed Arabidopsis cultured cells: cells transformed by the gene
Method: Constructs were transformed into Agrobacterium tumefaciens (C58C1Rif^R) by triparental mating (Van Haute et al., 1983), and Agrobacterium-mediated transformation of roots of Arabidopsis Columbia ecotype was essentially as described (Valvekens et al., 1988). Transgenic microcalli were generated by incubating co-cultivated root explants for 3 weeks on the callus induction medium (B5+0.5 mg/l 2,4-D and 0.05 mg/l KIN) supplemented with 50 mg/l Kan sulphate (Life Technologies, Grand Island, N.Y., USA) and 750 mg/l vancomycin hydrochloride (Wako, Osaka, Japan). The individual regenerating microcalli were transferred to fresh medium to ensure that all transformants were due to independent T-DNA insertions. To detect the introduced genes, genomic DNA was isolated from transgenic calli, digested with BamHI, and allowed to hybridize with the labeled cDNA as described above. Arabidopsis cells transformed with the binary vector alone served as controls.
To examine whether AtPSK2 and AtPSKL indeed code for precursors to PSK, we transformed 28-day-old Arabidopsis roots with artificially mutated AtPSK2 or AtPSKL cDNAs in the sense orientation designed to produce [Ser^4]PSK-α instead of PSK-α, and the wild-type cDNAs in sense and antisense orientations, respectively. The chimeric genes were placed under the control of the constitutive cauliflower mosaic virus (CaMV) 35S promoter incorporated within the binary vector pMAT037 (Matsuoka and Nakamura, 1991). Arabidopsis cells transformed with the binary vector alone served as controls. B5 medium (Gamborg et al., 1968) supplemented with 0.5 mg/L 2,4-dichlorophenoxyacetic acid (2,4-D) and 0.05 mg/L kinetin (KIN) was used to induce calli.
The rate of cell division was investigated on the transgenic cells. The results on AtPSK2 and AtPSKL are shown in FIGS. 12 and 13, respectively. In FIGS. 12 and 13, A indicates the result of the sense transgenic cells, B indicates the result of the control cells, C indicates the result of the antisense transgenic cells, respectively. […]

Arabidopsis cells = experiment: LC/MS quantification of PSK analogs secreted into conditioned medium (CM) by transgenic cells; format: cell-based, Arabidopsis thaliana; settings: cells transformed by the gene
From the text: A 22-mer primer (5′-[…]-3′) based on the nucleic acid sequence of the AtPSK2 cDNA and A 24-mer primer (5′-[…]-3′) based on the nucleic acid sequence of the AtPSKL cDNA were synthesized and used to obtain the mutated cDNAs that were designed to produce unnatural [Ser^4]PSK-α instead of PSK-α. Mutations were introduced with a LA PCR In Vitro Mutagenesis Kit (Takara) and confirmed by sequencing. The pMAT037 (Matsuoka and Nakamura, 1991) was employed as a binary vector for Arabidopsis root transformation. Original or mutated cDNAs were digested with SacI and HindIII or KpnI and inserted in-frame into the same sites of the vectors to construct chimeric genes harboring the cDNA in sense or antisense orientations, respectively. Expression of the chimeric genes was driven by the promoter of the CaMV 35S transcript.
Constructs were transformed into Agrobacterium tumefaciens (C58C1Rif^R) by triparental mating (Van Haute et al., 1983), and Agrobacterium-mediated transformation of roots of Arabidopsis Columbia ecotype was essentially as described (Valvekens et al., 1988). […]
Mass spectra were obtained using a Fisons VG platform quadruple mass spectrometer with electrospray ionization interfaced to a Jasco PU 980 HPLC system. […] The semiquantitative amounts of the PSK-α, PSK-β, [Ser^4]PSK-α and [Ser^4]PSK-β in CM were measured based on the peak heights without an internal standard. […]

Molecule | Cell proliferation activity compared to that of PSK-α (plant cell) | Effect of supplementation in the medium on decreased mitogenic activity of antisense transgenic cells ([1]; PSK-α added to medium of antisense transgenic cells) | Cell proliferation of transformed Arabidopsis cultured cells [1] | Secretion of PSK by transformed Arabidopsis cultured cells (Arabidopsis cells)
[sY]I[sY]T [PSK-β] | less than one-tenth | – | – | –
[sY]I[sY]TQ [PSK-α, reference compound] | – | alternated in part | – | –
B1 | – | – | cell proliferation was enhanced | could secret the PSK
B2 | – | – | cell proliferation was enhanced | could secret the PSK
